Measured values reported in publication PMC9482650, “Quantitative fragmentomics allow affinity mapping of interactomes” (Nature Communications, 2022).

T1: DLG3_1, Q92796
T1 sequence (Q92796 125-227, limits assumed, looked up): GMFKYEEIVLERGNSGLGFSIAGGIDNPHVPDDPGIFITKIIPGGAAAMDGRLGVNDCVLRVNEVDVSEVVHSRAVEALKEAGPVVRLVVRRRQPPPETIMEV

T2: FRMPD1, Q5SYB0
T2 sequence (Q5SYB0 52-145, limits assumed, looked up): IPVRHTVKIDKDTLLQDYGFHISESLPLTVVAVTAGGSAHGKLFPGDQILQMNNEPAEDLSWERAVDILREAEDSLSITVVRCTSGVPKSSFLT

T3: LIN7B, Q9HAP6
T3 sequence (Q9HAP6 88-185, limits assumed, looked up): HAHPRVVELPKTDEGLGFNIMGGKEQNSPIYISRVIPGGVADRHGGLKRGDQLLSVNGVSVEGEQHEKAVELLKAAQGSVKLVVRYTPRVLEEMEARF

T4: LNX2_2, Q8N448
T4 sequence (Q8N448 334-432, limits assumed, looked up): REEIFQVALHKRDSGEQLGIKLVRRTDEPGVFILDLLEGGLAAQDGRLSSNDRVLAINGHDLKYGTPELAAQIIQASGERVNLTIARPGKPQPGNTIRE

T5: MPP2, Q14168
T5 sequence (Q14168 180-250, limits assumed, looked up): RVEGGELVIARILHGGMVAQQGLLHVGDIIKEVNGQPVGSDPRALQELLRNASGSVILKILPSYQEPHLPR

T6: PCLO, Q9Y6V0
T6 sequence (Q9Y6V0 4491-4600, limits assumed, looked up): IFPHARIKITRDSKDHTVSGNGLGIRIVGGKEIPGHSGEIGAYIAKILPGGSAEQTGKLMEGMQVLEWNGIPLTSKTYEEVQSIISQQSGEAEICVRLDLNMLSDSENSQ

T7: PDZRN3_1, Q9UPQ7
T7 sequence (Q9UPQ7 244-349, limits assumed, looked up): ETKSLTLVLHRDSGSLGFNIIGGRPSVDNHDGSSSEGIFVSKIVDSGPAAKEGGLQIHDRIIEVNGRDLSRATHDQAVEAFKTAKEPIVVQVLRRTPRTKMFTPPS

T8: RHPN1, Q8TCX5
T8 sequence (Q8TCX5 508-602, limits assumed, looked up): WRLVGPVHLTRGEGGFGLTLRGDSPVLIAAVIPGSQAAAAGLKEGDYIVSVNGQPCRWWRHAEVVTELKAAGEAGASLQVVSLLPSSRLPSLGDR

T9: SNTA1, Q13424
T9 sequence (Q13424 82-180, limits assumed, looked up): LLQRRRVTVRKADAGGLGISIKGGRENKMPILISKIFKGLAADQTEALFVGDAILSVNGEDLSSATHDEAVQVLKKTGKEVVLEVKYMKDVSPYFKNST

T10: SNTG2, Q9NY99
T10 sequence (Q9NY99 68-166, limits assumed, looked up): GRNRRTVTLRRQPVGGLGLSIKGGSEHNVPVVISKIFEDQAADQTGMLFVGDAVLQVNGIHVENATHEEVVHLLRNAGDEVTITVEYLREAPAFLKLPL

T11: TX1BP3, O14907
T11 sequence (O14907 10-122, limits assumed, looked up): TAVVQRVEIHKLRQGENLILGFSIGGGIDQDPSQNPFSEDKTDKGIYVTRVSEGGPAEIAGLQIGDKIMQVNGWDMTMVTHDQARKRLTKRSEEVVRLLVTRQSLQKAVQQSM


Assays:
Experiment in all cases: holdup assay
Design in all cases: key: below the threshold = too weak to quantify, mostly under pKd 3.1 to 4
Settings in all cases: plain residues with an end cap or a label only (N-terminal biotin on a linker: ado-ado)
DLG3_1, Q92796 = target: T1, DLG3_1, Q92796
DLG4_2, P78352 = target: DLG4_2, P78352
Sequence of DLG4_2, P78352 (P78352 155-259): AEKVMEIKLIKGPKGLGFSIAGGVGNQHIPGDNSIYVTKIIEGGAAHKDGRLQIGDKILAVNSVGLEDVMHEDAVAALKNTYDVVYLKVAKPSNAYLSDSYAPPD

DLG4_3, P78352 = target: DLG4_3, P78352
Sequence of DLG4_3, P78352 (P78352 306-403): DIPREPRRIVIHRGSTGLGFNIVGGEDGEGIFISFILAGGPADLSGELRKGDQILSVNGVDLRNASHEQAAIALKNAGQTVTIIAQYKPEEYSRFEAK

FRMPD1, Q5SYB0 = target: T2, FRMPD1, Q5SYB0
FRMPD2_1, Q68DX3 = target: FRMPD2_1, Q68DX3
Sequence of FRMPD2_1, Q68DX3 (Q68DX3 770-861): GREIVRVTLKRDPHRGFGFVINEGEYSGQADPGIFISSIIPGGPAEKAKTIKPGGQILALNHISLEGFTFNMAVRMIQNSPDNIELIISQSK

GRIP2_3, Q9C0E4 = target: GRIP2_3, Q9C0E4
Sequence of GRIP2_3, Q9C0E4 (Q9C0E4 238-339): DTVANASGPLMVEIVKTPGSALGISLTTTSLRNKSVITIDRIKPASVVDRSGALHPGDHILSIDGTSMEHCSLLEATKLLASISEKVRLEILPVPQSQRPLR

HTRA1, Q92743 = target: HTRA1, Q92743
Sequence of HTRA1, Q92743 (Q92743 360-477): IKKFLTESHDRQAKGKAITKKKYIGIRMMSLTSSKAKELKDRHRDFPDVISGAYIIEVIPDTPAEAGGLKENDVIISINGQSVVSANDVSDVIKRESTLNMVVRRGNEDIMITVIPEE

HTRA2, O43464 = target: HTRA2, O43464
Sequence of HTRA2, O43464 (O43464 355-458): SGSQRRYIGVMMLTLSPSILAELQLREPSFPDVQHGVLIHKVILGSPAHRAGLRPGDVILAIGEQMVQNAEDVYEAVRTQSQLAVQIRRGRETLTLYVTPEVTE

IL16_1, Q14005 = target: IL16_1, Q14005
Sequence of IL16_1, Q14005 (Q14005 210-306): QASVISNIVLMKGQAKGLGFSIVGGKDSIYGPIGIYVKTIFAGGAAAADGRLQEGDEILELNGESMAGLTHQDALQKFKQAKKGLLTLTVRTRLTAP

IL16_3, Q14005 = target: IL16_3, Q14005
Sequence of IL16_3, Q14005 (Q14005 1107-1207): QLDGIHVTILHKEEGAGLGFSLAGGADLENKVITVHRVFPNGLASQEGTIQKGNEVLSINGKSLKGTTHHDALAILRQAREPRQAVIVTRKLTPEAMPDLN

IL16_4, Q14005 = target: IL16_4, Q14005
Sequence of IL16_4, Q14005 (Q14005 1229-1329): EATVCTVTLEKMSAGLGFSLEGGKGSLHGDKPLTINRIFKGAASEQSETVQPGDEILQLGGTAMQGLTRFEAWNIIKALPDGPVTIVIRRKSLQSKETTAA

Inadl_4, Q8NI35 = target: Inadl_4, Q8NI35
Sequence of Inadl_4, Q8NI35 (Q8NI35 547-651): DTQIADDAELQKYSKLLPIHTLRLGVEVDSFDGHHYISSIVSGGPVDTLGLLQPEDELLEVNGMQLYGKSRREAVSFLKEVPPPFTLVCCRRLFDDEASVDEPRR

Inadl_8, Q8NI35 = target: Inadl_8, Q8NI35
Sequence of Inadl_8, Q8NI35 (Q8NI35 1425-1530): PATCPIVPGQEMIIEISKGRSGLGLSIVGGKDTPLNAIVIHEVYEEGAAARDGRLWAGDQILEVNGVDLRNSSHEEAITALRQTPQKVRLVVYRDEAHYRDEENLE

LIMK2, P53671 = target: LIMK2, P53671
Sequence of LIMK2, P53671 (P53671 143-248): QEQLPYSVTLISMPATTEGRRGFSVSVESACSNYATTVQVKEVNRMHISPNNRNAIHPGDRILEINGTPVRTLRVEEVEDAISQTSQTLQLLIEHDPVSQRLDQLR

LIN7B, Q9HAP6 = target: T3, LIN7B, Q9HAP6
LNX2_2, Q8N448 = target: T4, LNX2_2, Q8N448
MPP2, Q14168 = target: T5, MPP2, Q14168
NHERF4_1, Q86UT5-2 = target: NHERF4_1, Q86UT5-2
Sequence of NHERF4_1, Q86UT5-2 (Q86UT5 other isoform, or with tags, fused parts or gaps): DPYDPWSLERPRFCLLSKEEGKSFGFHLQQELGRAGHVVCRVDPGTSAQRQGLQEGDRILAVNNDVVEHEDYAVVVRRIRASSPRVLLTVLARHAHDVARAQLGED

PARD3_3, Q8TEW0 = target: PARD3_3, Q8TEW0
Sequence of PARD3_3, Q8TEW0 (Q8TEW0 582-685): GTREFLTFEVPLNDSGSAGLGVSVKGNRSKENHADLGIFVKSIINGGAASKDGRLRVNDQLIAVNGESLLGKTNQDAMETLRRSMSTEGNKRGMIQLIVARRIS

PCLO, Q9Y6V0 = target: T6, PCLO, Q9Y6V0
PDLIM1, O00151 = target: PDLIM1, O00151
Sequence of PDLIM1, O00151 (O00151 1-87): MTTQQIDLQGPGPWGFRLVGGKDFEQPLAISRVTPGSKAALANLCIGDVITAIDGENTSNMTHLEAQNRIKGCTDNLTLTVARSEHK

PDZRN3_1, Q9UPQ7 = target: T7, PDZRN3_1, Q9UPQ7
RHPN1, Q8TCX5 = target: T8, RHPN1, Q8TCX5
SNTA1, Q13424 = target: T9, SNTA1, Q13424
SNTG2, Q9NY99 = target: T10, SNTG2, Q9NY99
SNX27, Q96L92 = target: SNX27, Q96L92
TX1BP3, O14907 = target: T11, TX1BP3, O14907

| Binder | pKd (DLG3_1, Q92796) | pKd (DLG4_2, P78352) | pKd (DLG4_3, P78352) | pKd (FRMPD1, Q5SYB0) | pKd (FRMPD2_1, Q68DX3) | pKd (GRIP2_3, Q9C0E4) | pKd (HTRA1, Q92743) | pKd (HTRA2, O43464) | pKd (IL16_1, Q14005) | pKd (IL16_3, Q14005) | pKd (IL16_4, Q14005) | pKd (Inadl_4, Q8NI35) | pKd (Inadl_8, Q8NI35) | pKd (LIMK2, P53671) | pKd (LIN7B, Q9HAP6) | pKd (LNX2_2, Q8N448) | pKd (MPP2, Q14168) | pKd (NHERF4_1, Q86UT5-2) | pKd (PARD3_3, Q8TEW0) | pKd (PCLO, Q9Y6V0) | further results |
| --- | --- | --- | --- | --- | --- | --- | --- | --- | --- | --- | --- | --- | --- | --- | --- | --- | --- | --- | --- | --- | --- |
| RPGFASESKV [ADRB1, P08588] | 3.62 | 4.22 | below the threshold | below the threshold | below the threshold | below the threshold | below the threshold | below the threshold | 4.36 | below the threshold | below the threshold | below the threshold | 3.73 | below the threshold | below the threshold | below the threshold | below the threshold | below the threshold | below the threshold | below the threshold | pKd (PDLIM1, O00151): below the threshold; pKd (PDZRN3_1, Q9UPQ7): 3.92; pKd (RHPN1, Q8TCX5): 4.59; pKd (SNTA1, Q13424): 4.28; pKd (SNTG2, Q9NY99): 4.35; pKd (SNX27, Q96L92): 4.84; pKd (TX1BP3, O14907): 4.72 |
| DFRHKSSFVI [JAM3, Q9BX67] | below the threshold | below the threshold | below the threshold | below the threshold | below the threshold | below the threshold | 4.64 | below the threshold | below the threshold | below the threshold | below the threshold | below the threshold | below the threshold | below the threshold | 3.82 | 4.15 | 3.67 | below the threshold | 3.94 | below the threshold | pKd (PDLIM1, O00151): below the threshold; pKd (PDZRN3_1, Q9UPQ7): below the threshold; pKd (RHPN1, Q8TCX5): below the threshold; pKd (SNTA1, Q13424): below the threshold; pKd (SNTG2, Q9NY99): below the threshold; pKd (SNX27, Q96L92): below the threshold; pKd (TX1BP3, O14907): below the threshold |
| GQETPLNTFC [MAP7D2, Q96T17] | below the threshold | 3.48 | 3.6 | below the threshold | below the threshold | below the threshold | 3.79 | below the threshold | below the threshold | below the threshold | below the threshold | below the threshold | below the threshold | below the threshold | 3.81 | below the threshold | below the threshold | 3.6 | below the threshold | below the threshold | pKd (PDLIM1, O00151): below the threshold; pKd (PDZRN3_1, Q9UPQ7): below the threshold; pKd (RHPN1, Q8TCX5): below the threshold; pKd (SNTA1, Q13424): below the threshold; pKd (SNTG2, Q9NY99): 3.7; pKd (SNX27, Q96L92): 3.49; pKd (TX1BP3, O14907): 4.04 |
| QYPGSPDSWV [PKP4, Q99569] | 3.97 | 4.62 | below the threshold | below the threshold | below the threshold | below the threshold | 4.78 | 4.05 | 4.13 | 3.55 | below the threshold | below the threshold | 4.16 | below the threshold | below the threshold | 4.69 | below the threshold | 3.57 | 3.85 | below the threshold | pKd (PDLIM1, O00151): 4.14; pKd (PDZRN3_1, Q9UPQ7): 3.77; pKd (RHPN1, Q8TCX5): 4.26; pKd (SNTA1, Q13424): 4.13; pKd (SNTG2, Q9NY99): 3.62; pKd (SNX27, Q96L92): 4.72; pKd (TX1BP3, O14907): 4.98 |
